Legend:
[1] = molecular target: Glutathione S-transferase class Gtt2 from Vibrio parahaemolyticus (VpGSTT2) (Vibrio parahaemolyticus (strain FIM-S1708+)); test: SEC; Superdex 75 HR 10/300 GL on an Äkta Pure, calibrated with molecular-weight standards (conalbumin, ovalbumin, carbonic anhydrase, ribonuclease A, aprotinin); VpGSTT2 eluted at 10.8 mL, corresponding to 48.2 kDa; protein dialysed against Tris-HCl, 150 mM NaCl, pH 7.2
[2] = molecular target: T1, VpGSTT2 (Vibrio parahaemolyticus, UniProt Q87HB4); test: spectrophotometric CDNB conjugation at […] nm, initial rates; format: biochemical; conditions: read-out: CDNB / Km; CDNB 0.3-2 mM, GSH 0.5 mM fixed; phosphate buffer (0.1 M NaH2PO4 pH 6.5), room temperature
T1 construct: gene VPA1051; Full coding region, synthetic E. coli-optimised gene in pET11a; C-terminal PreScission site and 6xHis tag (tag removal described); E. coli BL21(DE3) Gold
T1 sequence (Q87HB4 1-204): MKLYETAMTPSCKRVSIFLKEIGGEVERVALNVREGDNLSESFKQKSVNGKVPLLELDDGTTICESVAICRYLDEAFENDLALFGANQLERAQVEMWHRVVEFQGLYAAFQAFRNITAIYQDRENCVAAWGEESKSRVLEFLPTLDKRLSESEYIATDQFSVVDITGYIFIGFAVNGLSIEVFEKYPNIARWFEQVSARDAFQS

Compound	stoichiometry N [1]	Km [2] [µM]
Glutathione S-transferase class Gtt2 from Vibrio parahaemolyticus (VpGSTT2) (enzyme)	2	
O=[N+]([O-])c1ccc(Cl)c([N+](=O)[O-])c1 [CDNB, 1-chloro-2,4-dinitrobenzene]		1000
